Measured values: patent US12377130B2, “Pharmaceutical composition comprising CCN5 as active ingredient, for preventing or treating retinal diseases” (OLIVES BIOTHERAPEUTICS INC., priority 2018, dated 2025)

Key:
Format in all cases: cell-based, human
[1] = system: ARPE-19 cells; assay: Bevacizumab-induced fibrotic deformation of ARPE-19 cells and prevention by AdCCN5; conditions: bevacizumab 0.25 mg/ml
Method: Recombinant TGF-β2 was purchased from PeproTech Korea (Korea). ARPE-19 cells were treated with the recombinant TGF-β2 at 10 ng/ml. Recombinant EGF and FGF-2 were purchased from Invitrogen (USA). ARPE-19 cells were treated with 1 mM of EGTA, 10 ng/ml of EGF, and 20 ng/ml of FGF-2.
Use of an anti-VEGF drug that inhibits neovascularization is a widely used method for treating wet age-related macular degeneration. However, this method has a side effect of causing morphological and functional changes in RPE cells. […] The specific experimental process is shown in Example 2, and this experimental process is schematically illustrated in FIG. 11a. The experimental results are illustrated in FIGS. 11b to 11d.

[2] = system: ARPE-19 cells; assay: Anti-VEGF drug-induced fibrotic deformation of ARPE-19 cells, simultaneous treatment with CCN5 protein; conditions: for expression of CCN5 on treatment with anti-VEGF drug / expression of CCN2 on treatment with anti-VEGF drug: bevacizumab 0.25 mg/ml, ranibizumab 0.125 mg/ml, aflibercept 0.5 mg/ml
[3] = system: ARPE-19 cells; assay: Prevention of TGF-β-induced fibrotic deformation of ARPE-19 cells (microscopy, Western blotting, qPCR, immunofluorescence); conditions: FIG. 3
Method: A retinal pigment epithelial cell line (ARPE-19; ATCC, USA) was cultured in a 5% CO2 incubator at 37° C. using Dulbecco's modified Eagle's medium and Ham's F12 Nutrient Mixture medium (DMEM/F12; Welgene, Korea), containing 1% antibiotics (Gibco, USA) and 10% fetal bovine serum (FBS; HyClone, USA). The medium was replaced with fresh medium every other day. When the cells were cultured to a certain extent in a culture plate, these cells were subcultured using 0.25% trypsin/0.02% EDTA (Gibco, USA). […]
Cells that had been grown by being seeded in a 12-well culture plate, each well containing a coverslip, were fixed with 4% formaldehyde and treated with 0.2% Triton X-100 for 10 minutes. […] Observation was performed under a fluorescence microscope.
RNA was extracted using TRIZOL™ (Invitrogen, USA) reagent. cDNA was synthesized using a reverse transcription kit (Promega, USA), and real-time polymerase chain reaction was performed using SYBR® green (TAKARA, Japan). The level of RNA was analyzed by analyzing the amplification reaction curve, and this analysis was performed in triplicate or quadruplicate. The relative expression level of genes was quantified by normalization to 18s rRNA. […]

[4] = system: ARPE-19 cells; assay: Restoration of already formed TGF-β-induced fibrotic deformation of ARPE-19 cells; conditions: then agent (restoration); for expression of mesenchymal (α-SMA, vimentin, fibronectin) and epithelial (ZO-1, occludin) marker proteins (Western blotting): TGF-β 2 days, FIGS. 6c, 8b, 12b, 13b
Method: The cultured cells were divided into the following two groups and subjected to drug treatment: one group in which induction of differentiation of retinal pigment epithelial cells into mesenchymal cells was suppressed; and the other group in which retinal pigment epithelial cells that had been induced to differentiate into mesenchymal cells were caused to return to normal retinal pigment epithelial cells. The ARPE-19 cells were grown in serum-free medium for 24 hours. Then, the cells were treated with AdCCN5 at 50 multiplicity of infection (MOI) followed by 10 ng/ml of TGF-β2 (PeproTech Korea, Korea), or treated with TGF-β2 followed by AdCCN5.
For in vitro experiments, the cultured ARPE-19 cells were washed with phosphate buffered saline (PBS), and suspended with a mixed solution of cold RIPA buffer (1% NP-40, 50 mM Tris-HCl [pH 7.4], 150 mM NaCl, and 10 mM NaF) and a protease inhibitor cocktail (Roche, Germany). The cell suspension was subjected to treatment with an ultrasonic generator for 5 minutes at an amplitude of 5% with a cycle of 2 seconds on/1 second off.
Cells that had been grown by being seeded in a 12-well culture plate, each well containing a coverslip, were fixed with 4% formaldehyde and treated with 0.2% Triton X-100 for 10 minutes. The cells were blocked with a diluted solution of 5% bovine serum albumin in PBS, and incubated with anti-ZO-1 and anti-α-SMA antibodies overnight at 4° C. For secondary antibodies, the cells were incubated for 1 hour at room temperature with FITC- or Alexa Fluor 594-conjugated secondary antibodies, TEXAS RED®-conjugated phalloidin (Invitrogen, USA) for f-actin staining, and Hoechst 33342 (Invitrogen, USA) for nuclear staining. The results were observed using an epifluorescence microscope (Zeiss, Germany). For retinal flat-mount experiments, the eyes were enucleated from the mice, and each eye was fixed in 4% formaldehyde for 24 hours. […] Observation was performed under a fluorescence microscope. […]

[5] = system: ARPE-19 cells; assay: Induction of fibrotic deformation of ARPE-19 cells by TGF-β
Method: The mature ARPE-19 cells form a cobblestone-like monolayer and express marker proteins specific for epithelial cells. The cultured ARPE-19 cells were treated with TGF-β at 5 ng/ml or 10 ng/ml for 2 days (FIG. 1a). The results are illustrated in FIGS. 1b to 1d.

[6] = TGF-β 5 or 10 ng/ml, 2 days, FIG. 1c

## bevacizumab: anti-VEGF monoclonal antibody drug sold under the brand name Avastin
[1]; FIG. 11b
  morphology of ARPE-19 cells on treatment with bevacizumab: the morphology of the cells changed
[1]; FIG. 11c
  expression of CCN5 on treatment with bevacizumab (Western blotting): the expression of CCN5 is decreased by bevacizumab
[2]; FIG. 14b
  expression of CCN5 on treatment with anti-VEGF drug: decreased expression of CCN5

## Cc1cccc(-c2nn(C(=S)Nc3ccccc3)cc2-c2ccnc3ccccc23)n1 [A83-01, reference compound]
[3]
  TGF-β-induced fibrotic deformation (Western blotting), CCN5 compared with A83-01: inhibited TGF-β-induced fibrotic deformation of ARPE-19 cells
[4]
  expression of mesenchymal (α-SMA, vimentin, fibronectin) and epithelial (ZO-1, occludin) marker proteins (Western blotting): failed to normalize abnormal changes in expression of mesenchymal marker proteins (α-SMA, vimentin, and fibronectin) and epithelial marker proteins (ZO-1 and occludin)

## aflibercept: anti-VEGF drug sold under the brand name EYLEA
[2]; FIG. 14b
  expression of CCN2 on treatment with anti-VEGF drug: increased expression of CCN2
  expression of CCN5 on treatment with anti-VEGF drug: decreased expression of CCN5

## ranibizumab: anti-VEGF monoclonal antibody fragment (Fab) sold under the brand name LUCENTIS
[2]; FIG. 14b
  expression of CCN2 on treatment with anti-VEGF drug: increased expression of CCN2
  expression of CCN5 on treatment with anti-VEGF drug: decreased expression of CCN5

B1: CCN5 protein: purified human-derived CCN5 protein, extracellular matrix-related protein of the CCN family, also called WISP-2 (protein)
chain: QLCPTPCTCPWPPPRCPLGVPLVLDGCGCCRVCARRLGEPCDQLHVCDASQGLVCQPGAGPGGRGALCLLAEDDSSCEVNGRLYREGETFQPHCSIRCRCEDGGFTCVPLCSEDVRLPSWDCPHPRRVEVLGKCCPEWVCGQGGGLGTQPLPAQGPQFSGLVSSLPPGVPCPEWSTAWGPCSTTCGLGMATRVSNQNRFCRLETQRRLCLSRPCPPSRGRSPQNSAF
modifications: CCN5(except signal peptide, human)
[3]
  TGF-β-induced fibrotic deformation (Western blotting), CCN5 compared with A83-01: inhibited TGF-β-induced fibrotic deformation of ARPE-19 cells to the same level as A83-01
[4]
  expression of mesenchymal (α-SMA, vimentin, fibronectin) and epithelial (ZO-1, occludin) marker proteins (Western blotting): inhibited increased expression of mesenchymal marker proteins (α-SMA, vimentin, and fibronectin) and restored decreased expression of epithelial marker proteins (ZO-1 and occludin) to a normal level
[4]; TGF-β, FIGS. 6d, 12c, 13c
  tight junction (immunofluorescence staining): restore the tight junction, disrupted by TGF-β, to normal
[2]; simultaneous treatment with anti-VEGF drugs
  expression of mesenchymal and epithelial marker proteins (Western blotting): inhibited increased expression of mesenchymal marker proteins (α-SMA, vimentin, and fibronectin) and decreased expression of epithelial marker proteins (ZO-1 and occludin)
[2]; simultaneous treatment with anti-VEGF drugs, FIG. 14b
  anti-VEGF drug-induced decrease of CCN5 and increase of CCN2 expression, effect of CCN5 protein: this phenomenon was inhibited by CCN5 protein
[2]; simultaneous treatment with anti-VEGF drugs, FIG. 14c
  tight junction, expression of α-SMA and formation of f-actin (immunofluorescence staining): inhibited disruption of tight junction, increased expression of α-SMA, and formation of f-actin

B2: TGF-β: Recombinant TGF-β2 (PeproTech), trigger for fibrotic deformation of RPE cells (protein, UniProt P61812 303-414, looked up)
Transforming growth factor …: ALDAAYCFRNVQDNCCLRPLYIDFKRDLGWKWIHEPKGYNANFCAGACPYLWSSDTQHSRVLSLYNTINPEASASPCCVSQDLEPLTILYYIGKTPKIEQLSNMIVKSCKCS
[5]; FIG. 1d
  α-SMA, f-actin and tight junction after treatment with TGF-β (immunofluorescence staining): the expression of α-SMA and f-actin is increased and the formation of tight junction is inhibited
[5]; TGF-β 5 or 10 ng/ml, 2 days, FIG. 1b
  morphology of ARPE-19 cells after treatment with TGF-β: acquired a fibroblastic morphology
[5]; [6]
  expression level of CCN5 protein after treatment with TGF-β: significantly decreased the expression level of human-derived CCN5 protein
  expression of mesenchymal and epithelial marker proteins after treatment with TGF-β: the expression of the mesenchymal marker proteins, α-SMA, vimentin, fibronectin, and type I collagen, was increased, whereas the expression of the epithelial marker proteins, ZO-1 and occludin, was significantly decreased
